Where two headings read alike, the source gives them in different places.
T1: IFNAR1 (human, UniProt P17181 28-557)
T1 sequence (looked up): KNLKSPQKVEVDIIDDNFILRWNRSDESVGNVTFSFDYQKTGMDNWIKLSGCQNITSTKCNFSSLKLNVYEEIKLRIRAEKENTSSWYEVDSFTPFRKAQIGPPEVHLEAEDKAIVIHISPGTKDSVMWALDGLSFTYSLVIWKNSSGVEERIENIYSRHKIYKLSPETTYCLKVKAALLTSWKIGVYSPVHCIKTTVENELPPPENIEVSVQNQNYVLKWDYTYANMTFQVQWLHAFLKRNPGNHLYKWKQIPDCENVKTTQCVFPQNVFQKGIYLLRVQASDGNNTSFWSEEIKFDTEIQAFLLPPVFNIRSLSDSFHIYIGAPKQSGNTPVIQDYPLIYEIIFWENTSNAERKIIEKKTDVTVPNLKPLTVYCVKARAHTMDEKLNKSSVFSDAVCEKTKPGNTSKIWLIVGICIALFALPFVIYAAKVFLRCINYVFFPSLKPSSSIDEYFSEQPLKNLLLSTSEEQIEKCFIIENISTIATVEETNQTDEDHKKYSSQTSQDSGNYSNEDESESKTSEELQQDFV

T2: APRIL (Acro Biosystems, Cat: APL-H52D1) (UniProt O75888 115-250, limits assumed)
T2 construct: also called ARPIL
T2 sequence (looked up): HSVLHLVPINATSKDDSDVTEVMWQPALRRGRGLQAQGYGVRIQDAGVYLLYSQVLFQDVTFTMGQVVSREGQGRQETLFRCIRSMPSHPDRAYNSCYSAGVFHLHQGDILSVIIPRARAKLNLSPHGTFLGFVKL

T3: recombinant human APRIL (R&D cat: 5860-AP-010/CF) (human, UniProt O75888 105-250, limits assumed)
T3 sequence (looked up): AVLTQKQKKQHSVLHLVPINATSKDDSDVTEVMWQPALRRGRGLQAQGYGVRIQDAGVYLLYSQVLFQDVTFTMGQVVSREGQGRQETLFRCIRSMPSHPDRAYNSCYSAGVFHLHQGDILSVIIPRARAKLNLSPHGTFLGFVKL

B1: B746201 (other)
heavy: EVQLVQSGAEVKKPGESLKISCKGSGYIFTNYWIAWVRQMPGKGLESMGIIYPGDSDIRYSPSFQGQVTISADKSITTAYLQWSSLKASDTAMYYCARHDIEGFDYWGRGTLVTVSSASTKGPSVFPLAPSSKSTSGGTAALGCLVKDYFPEPVTVSWNSGALTSGVHTFPAVLQSSGLYSLSSVVTVPSSSLGTQTYICNVNHKPSNTKVDKRVEPKSCDKTHTCPPCPAPEFEGGPSVFLFPPKPKDTLMISRTPEVTCVVVDVSHEDPEVKFNWYVDGVEVHNAKTKPREEQYNSTYRVVSVLTVLHQDWLNGKEYKCKVSNKALPASIEKTISKAKGQPREPQVYTLPPSRDELTKNQVSLTCLVKGFYPSDIAVEWESNGQPENNYKTTPPVLDSDGSFFLYSKLTVDKSRWQQGNVFSCSVMHEALHNHYTQKSLSLSPGKGGGGSGGGGSGGGGSMLQMAGQCSQNEYFDSLLHACIPCQLRCSSNTPPLTCQRYCSTSCREEQGEFYDHLLRDCISCASICGQHPKQCAAFCE
light: EIVLTQSPGTLSLSPGERATLSCRASQSVSSSFFAWYQQKPGQAPRLLIYGASSRATGIPDRLSGSGSGTDFTLTITRLEPEDFAVYYCQQYDSSAITFGQGTRLEIKRTVAAPSVFIFPPSDEQLKSGTASVVCLLNNFYPREAKVQWKVDNALQSGNSQESVTEQDSKDSTYSLSSTLTLSKADYEKHKVYACEVTHQGLSSPVTKSFNRGEC
notes: Fusion protein of anifrolumab, TACI-19-16 and BCMA-ECD-2 (C-terminus of the heavy chain)
B2: B805201 (other)
heavy: EVQLVQSGAEVKKPGESLKISCKGSGYIFTNYWIAWVRQMPGKGLESMGIIYPGDSDIRYSPSFQGQVTISADKSITTAYLQWSSLKASDTAMYYCARHDIEGFDYWGRGTLVTVSSASTKGPSVFPLAPSSKSTSGGTAALGCLVKDYFPEPVTVSWNSGALTSGVHTFPAVLQSSGLYSLSSVVTVPSSSLGTQTYICNVNHKPSNTKVDKRVEPKSCDKTHTCPPCPAPEFEGGPSVFLFPPKPKDTLMISRTPEVTCVVVDVSHEDPEVKFNWYVDGVEVHNAKTKPREEQYNSTYRVVSVLTVLHQDWLNGKEYKCKVSNKALPASIEKTISKAKGQPREPQVYTLPPSRDELTKNQVSLTCLVKGFYPSDIAVEWESNGQPENNYKTTPPVLDSDGSFFLYSKLTVDKSRWQQGNVFSCSVMHEALHNHYTQKSLSLSPGKGGGGSGGGGSGGGGSSTSCREEQGEFYDHLLRDCISCASICGQHPKQCAAFCE
light: B1 light
notes: Fusion protein of anifrolumab and TACI-19-16 (C-terminus of the heavy chain); also called B80521
B3: B575703 (Fc fusion)
chain: SRVDQEERFPQGLWTGVAMRSCPEEQYWDPLLGTCMSCKTICNHQSQRTCAAFCRSLSCRKEQGKFYDHLLRDCISCASICGQHPKQCAYFCENKLRSPVNLPPELMLQMAGQCSQNEYFDSLLHACIPCQLRCSSNTPPLTCQRYCNASVTNSVKGTNADKTHTCPPCPAPEAEGAPSVFLFPPKPKDTLMISRTPEVTCVVVDVSHEDPEVKFNWYVDGVEVHNAKTKPREEQYNSTYRVVSVLTVLHQDWLNGKEYKCKVSNKALPSSIEKTISKAKGQPREPQVYTLPPSRDELTKNQVSLTCLVKGFYPSDIAVEWESNGQPENNYKTTPPVLDSDGSFFLYSKLTVDKSRWQQGNVFSCSVMHEALHNHYTQKSLSLSPGK
notes: TACI-BCMA fusion protein; also called TACI-T2-BCMA-ECD-Fc
B4: B575702 (Fc fusion)
chain: MLQMAGQCSQNEYFDSLLHACIPCQLRCSSNTPPLTCQRYCNASVTNSVKGTNALSCRKEQGKFYDHLLRDCISCASICGQHPKQCAYFCENKLRSPGDKTHTCPPCPAPEAEGAPSVFLFPPKPKDTLMISRTPEVTCVVVDVSHEDPEVKFNWYVDGVEVHNAKTKPREEQYNSTYRVVSVLTVLHQDWLNGKEYKCKVSNKALPSSIEKTISKAKGQPREPQVYTLPPSRDELTKNQVSLTCLVKGFYPSDIAVEWESNGQPENNYKTTPPVLDSDGSFFLYSKLTVDKSRWQQGNVFSCSVMHEALHNHYTQKSLSLSPGK
notes: TACI-BCMA fusion protein; also called BCMA-ECD-TACI-d2-Fc

How the values were obtained:
IFNAR1 [1] = molecular target: T1, IFNAR1; assay: cell-based or functional assay
[2] = molecular target: T2, APRIL (Acro Biosystems, Cat: APL-H52D1); assay: ELISA, APRIL coated at 1 ug/mL, anti-human Fc-HRP, OD450
Protocol: The capabilities of fusion proteins B606401, B637302, B746201, and B805201 to bind to BAFF and APRIL were assessed by ELISA as follows:
(§1) BAFF (PeproTech, Cat: 310-13) or ARPIL (Acro Biosystems, Cat: APL-H52D1) was diluted to 1 μg/mL with PBS, and a 96-well plate was coated with the dilution overnight at 4° C. The plate was washed with PBST and blocked with Blocking Buffer (PBST containing 1% BSA) at 37° C. for 1 h. The plate was tapped. The test antibodies were diluted with Blocking Buffer. Incubation was performed at 37° C. for 1.5 h. The plate was washed with PBST. An HRP-mouse anti-human Fc antibody (GenScript, Cat: A01854-200) was diluted with Blocking Buffer. Incubation was performed at 37° C. for 40 min. The plate was washed with PBST. 100 μL of TMB substrate solution (Biopanda, Cat: TMB-S-003) was added, and color development was performed at 37° C. for 3 min. 100 μL of ELISA stop solution (Solarbio, Cat: C1058) was added. OD450 was measured.

[3] = molecular target: T2, APRIL (Acro Biosystems, Cat: APL-H52D1); assay: ELISA, APRIL coated; reference telitacicept
IFNAR1 [4] = molecular target: T1, IFNAR1; assay: cell-based or functional assay; remark: listed apart in the source
[5] = molecular target: T4, recombinant human BAFF (R&D cat: 7537-BF-025/CF) (human, UniProt Q9Y275 134-285); assay: cell-based or functional assay
T4 sequence (Q9Y275 134-285 limits assumed): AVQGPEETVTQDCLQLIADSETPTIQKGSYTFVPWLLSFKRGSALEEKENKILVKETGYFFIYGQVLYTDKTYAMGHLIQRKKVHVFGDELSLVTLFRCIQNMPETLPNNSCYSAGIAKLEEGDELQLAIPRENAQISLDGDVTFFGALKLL

[6] = molecular target: T3, recombinant human APRIL (R&D cat: …); assay: cell-based or functional assay
[7] = molecular target: T4, recombinant human BAFF (R&D cat: …); assay: cell-based or functional assay; remark: listed apart in the source
[8] = molecular target: T5, BAFF (PeproTech, Cat: 310-13) (UniProt Q9Y275 134-285); assay: ELISA, BAFF coated at 1 ug/mL, anti-human Fc-HRP, OD450
T5 sequence (Q9Y275 134-285 limits assumed): as above
Protocol: as §1, with “The capabilities of TACI-BCMA fusion proteins (B575701, B575702, B575703, and B575704) to bind to BAFF and APRIL were assessed by ELISA as follows: BAFF (PeproTech,” for “BAFF (PeproTech,”, “96-well plate (Costar, Cat: 3590) was coated” for “96-well plate was coated”
(§2) The capability of B575702 to bind to BAFF was consistent with that of B575704, and their EC₅₀ values decreased to ¼ of that of telitacicept. The capability of B575701 to bind to BAFF was consistent with that of B575703, and their EC₅₀ values decreased to ½ of that of telitacicept.

[9] = molecular target: T2, APRIL (Acro Biosystems, Cat: APL-H52D1); assay: ELISA, APRIL coated at 1 ug/mL, anti-human Fc-HRP, OD450; remark: listed apart in the source
Protocol: as §1, with “The capabilities of TACI-BCMA fusion proteins (B575701, B575702, B575703, and B575704) to bind to BAFF and APRIL were assessed by ELISA as follows: BAFF (PeproTech,” for “BAFF (PeproTech,”, “96-well plate (Costar, Cat: 3590) was coated” for “96-well plate was coated”
(§3) The capabilities of the 4 fusion proteins to bind to APRIL were all stronger than that of telitacicept, and their EC₅₀ values decreased to ¼ to ⅓ of that of telitacicept.

[10] = molecular target: T5, BAFF (PeproTech, Cat: 310-13); assay: ELISA, BAFF coated; reference telitacicept
Protocol: as §1, with “The capabilities of TACI-BCMA fusion proteins (B575701, B575702, B575703, and B575704) to bind to BAFF and APRIL were assessed by ELISA as follows: BAFF (PeproTech,” for “BAFF (PeproTech,”, “96-well plate (Costar, Cat: 3590) was coated” for “96-well plate was coated”
as §2

[11] = molecular target: T2, APRIL (Acro Biosystems, Cat: APL-H52D1); assay: ELISA, APRIL coated; reference telitacicept; range told of the 4 fusion proteins, upper end tied to B575703 by Table 5
Protocol: as §1, with “The capabilities of TACI-BCMA fusion proteins (B575701, B575702, B575703, and B575704) to bind to BAFF and APRIL were assessed by ELISA as follows: BAFF (PeproTech,” for “BAFF (PeproTech,”, “96-well plate (Costar, Cat: 3590) was coated” for “96-well plate was coated”
as §3

[12] = molecular target: T2, APRIL (Acro Biosystems, Cat: APL-H52D1); assay: ELISA, APRIL coated; reference telitacicept; range told of the 4 fusion proteins, lower end tied to B575702 by Table 5
Protocol: as §1, with “The capabilities of TACI-BCMA fusion proteins (B575701, B575702, B575703, and B575704) to bind to BAFF and APRIL were assessed by ELISA as follows: BAFF (PeproTech,” for “BAFF (PeproTech,”, “96-well plate (Costar, Cat: 3590) was coated” for “96-well plate was coated”
as §3

| Binder | IC50, inhibition of IFN-alpha-induced in vitro differentiation of B cells into plasma cells (CD27+ CD38+) (IFNAR1 [1]) | EC50 [2] | Emax [2] | EC50 relative to telitacicept [3] | IC50 (nM), inhibition of the activity of type I interferons (IFN-beta, HEK-Blue IFN-alpha/beta reporter cells) (IFNAR1 [4]) | CD27+ CD38+ plasma cell count, mean value, BAFF + APRIL-induced (both ligands together), drug at 100 nM (IgG1: 2496) [5] | CD27+ CD38+ plasma cell count, mean value, BAFF + APRIL-induced (both ligands together), drug at 1000 nM (IgG1: 2279) [5] | CD27+ CD38+ plasma cell count, mean value, BAFF + APRIL-induced (both ligands together), drug at 10 nM (IgG1: 2687) [6] | CD27+ CD38+ plasma cell count, mean value, BAFF + APRIL-induced (both ligands together), drug at 100 nM (IgG1: 2496) [6] | CD27+ CD38+ plasma cell count, mean value, BAFF + APRIL-induced (both ligands together), drug at 1000 nM (IgG1: 2279) [6] | Flow cytometry proliferating B cell proportion (%), mean value, BAFF-induced, drug at 10 nM (IgG1: 40.15) [7] | Flow cytometry proliferating B cell proportion (%), mean value, BAFF-induced, drug at 100 nM (IgG1: 40.60) [7] | Flow cytometry proliferating B cell proportion (%), mean value, BAFF-induced, drug at 1000 nM (IgG1: 33.97) [7] | EC50 [8] | Emax [8] | EC50 [9] | Emax [9] | EC50 relative to telitacicept [10] | EC50 relative to telitacicept [11] | EC50 relative to telitacicept [12] |
| --- | --- | --- | --- | --- | --- | --- | --- | --- | --- | --- | --- | --- | --- | --- | --- | --- | --- | --- | --- | --- |
| B1 | 1.9 nM | 0.179 nM | 2.8 | 0.333 fold | 1.64 nM | 520 cells | 410 cells | 575 cells | 520 cells | 410 cells | – | – | – | – | – | – | – | – | – | – |
| B2 | 6.21 nM | 0.182 nM | 2.85 | 0.333 fold | 1.63 nM | 426 cells | 438 cells | 434 cells | 426 cells | 438 cells | 20.4% | 24.3% | 15% | – | – | – | – | – | – | – |
| B3 | – | – | – | – | – | – | – | – | – | – | – | – | – | 0.352 nM | 2.43 nM (as printed) | 0.264 nM | 2.78 | 0.5 fold | 0.333 fold | – |
| B4 | – | – | – | – | – | – | – | – | – | – | – | – | – | 0.166 nM | 2.24 nM (as printed) | 0.171 nM | 2.64 | 0.25 fold | – | 0.25 fold |
